Literature values, collected in article PMC4776130.
Like-named read-outs stand apart in the source and are kept apart here.

Key:
His15 [1] = biological target: T1, His15 (UniProt position 33, AAMKRHGLDNY); assay: NMR
His15 [2] = biological target: T1, His15
Asp43 = Asp43 (UniProt position 64, ALNNKDKPEDA); assay: NMR; conditions: HdeA dimer (remains dimeric from pH 6 down to pH 3)
Asp20 = Asp20 (UniProt position 41, SWTCEDFLAVD); assay: NMR; conditions: HdeA dimer (remains dimeric from pH 6 down to pH 3)
Asp25 = Asp25 (UniProt position 46, DFLAVDESFQP); assay: NMR; conditions: HdeA dimer (remains dimeric from pH 6 down to pH 3)
Asp83 [3] = biological target: Asp83 (UniProt position 104, VKGEWDKIKKD); assay: NMR; conditions: HdeA dimer (remains dimeric from pH 6 down to pH 3)
Glu46 = Glu46 (UniProt position 67, NKDKPEDAVLD); assay: NMR; conditions: HdeA dimer (remains dimeric from pH 6 down to pH 3)
Asp76 = Asp76 (UniProt position 97, QANFKDKVKGE); assay: NMR; conditions: HdeA dimer (remains dimeric from pH 6 down to pH 3)
Asp51 = Asp51 (UniProt position 72, EDAVLDVQGIA); assay: NMR; conditions: HdeA dimer (remains dimeric from pH 6 down to pH 3)
Asp69 = Asp69 (UniProt position 90, QACTQDKQANF); assay: NMR; conditions: HdeA dimer (remains dimeric from pH 6 down to pH 3)
Asp47 = Asp47 (UniProt position 68, KDKPEDAVLDV); assay: NMR; conditions: HdeA dimer (remains dimeric from pH 6 down to pH 3)
Glu19 = Glu19 (UniProt position 40, NSWTCEDFLAV); assay: NMR; conditions: HdeA dimer (remains dimeric from pH 6 down to pH 3)
Glu81 = Glu81 (UniProt position 102, DKVKGEWDKIK); assay: NMR; conditions: HdeA dimer (remains dimeric from pH 6 down to pH 3)
Glu26 = Glu26 (UniProt position 47, FLAVDESFQPT); assay: NMR; conditions: HdeA dimer (remains dimeric from pH 6 down to pH 3)
Glu57 = Glu57 (UniProt position 139, EKYGPEASAFT); conditions: folded SNase Delta+PHS
Asp19 = Asp19 (UniProt position 101, LIKAIDGDTVK); conditions: folded SNase Delta+PHS
Glu122 = Glu122 (UniProt position 204, GNNTHEQLLRK); conditions: folded SNase Delta+PHS
Glu43 = Glu43 (UniProt position 125, LVDTPETKHPK); conditions: folded SNase Delta+PHS
His121 = His121 (UniProt position 203, KGNNTHEQLLR)
Glu101 = Glu101 (UniProt position 183, GKMVNEALVRQ); conditions: folded SNase Delta+PHS
Glu10 = Glu10 (UniProt position 92, KKLHKEPATLI); conditions: folded SNase Delta+PHS
Glu75 = Glu75 (UniProt position 157, KKIEVEFDKGQ); conditions: folded SNase Delta+PHS
Glu52 = Glu52 (UniProt position 134, PKKFNEKYGPE); conditions: folded SNase Delta+PHS
Asp95 = Asp95 (UniProt position 177, AYIYADGKMVN); conditions: folded SNase Delta+PHS
Glu67 = Glu67 (UniProt position 149, TKKMVENAKKI); conditions: folded SNase Delta+PHS
Asp77 = Asp77 (UniProt position 159, IEVEFDKGQRT); conditions: folded SNase Delta+PHS
Asp83 [4] = biological target: Asp83 (UniProt position 165, KGQRTDKYGRG); conditions: folded SNase Delta+PHS
Asp40 = Asp40 (UniProt position 122, RLLLVDTPETK); conditions: folded SNase Delta+PHS
Glu129 = Glu129 (UniProt position 211, LLRKAEAQAKK); conditions: folded SNase Delta+PHS
Glu135 = Glu135 (UniProt position 217, AQAKKEKLNIW); conditions: folded SNase Delta+PHS
His8 = His8 (UniProt position 90, STKKLHKEPAT)
Asp21 = Asp21 (UniProt position 103, KAIDGDTVKLM); conditions: folded SNase Delta+PHS
Glu73 = Glu73 (UniProt position 155, NAKKIEVEFDK); conditions: folded SNase Delta+PHS

In the case of “Hen egg-white lysozyme (HEWL) (Gallus gallus)”, the pKa (His15 [1]) is listed as 5.5 ± 0.2 and the pKa (His15 [2]) is listed as 5.68–5.74.

In the case of “Acid stress chaperone HdeA (Escherichia coli)”, the pKa (Asp43) is listed as 3.87, the pKa (Asp20) is listed as 3.66 and the pKa (Asp25) is listed as 3.71. The pKa (Asp83 [3]) was 3.97, the pKa (Glu46) was 4.07 and the pKa (Asp76) was 3.75. For the same substance, the pKa (Asp51) was 3.83, the pKa (Asp69) was 3.74 and the pKa (Asp47) was 4.14. For the same substance, the pKa (Glu19) was 4.38, the pKa (Glu81) was 4.23 and the pKa (Glu26) was 4.57.

For “Staphylococcal nuclease (SNase), Delta+PHS variant (Staphylococcus aureus; G50F;V51N;P117G;H124L;S128A;del44-49)”, the pKa (Glu57) is given as 3.49, the pKa (Asp19) is given as 2.21 and the pKa (Glu122) is given as 3.89. The pKa (Glu43) was 4.32, the pKa (His121) was 5.25 and the pKa (Glu101) was 3.81. For the same substance, the pKa (Glu10) was 2.82, the pKa (Glu75) was 3.26 and the pKa (Glu52) was 3.93. The pKa (Asp95) was 2.16, the pKa (Glu67) was 3.76 and the pKa (Asp77) was under 2.2. For the same substance, the pKa (Asp83 [4]) was under 2.2, the pKa (Asp40) was 3.87 and the pKa (Glu129) was 3.75. The pKa (Glu135) was 3.76, the pKa (His8) was 6.50 and the pKa (Asp21) was 6.54. For the same substance, the pKa (Glu73) was 3.31.
